Assay: label from the status in PepcDB records

Sequence: MLSLPPCRLAARRYRPLRQQNRGSSAVILYNAPSFFDCRFDCLANHRQRRWPRAGHPDRDDVMHTLEQLRAGKLCGARHLKLAENLTEFPPEIFSLKETLEVLDLTGNQLSRLPDGLAEFSKLRIIFCSENRFTELPEVLGRCPALTMVGFKANKIVTVPAASLPAGLRWLILTDNAVEQLPDELGQCGALQKLMLSGNRLRELPVTLANCQRLELVRIAANRLEALPHWLVRLPRLAWLAYAGNPFSDKQEQRLGQCASVADIPWDSLKVGELLGQGASGVIHRAELATPAGPRAVAVKCFKGAVTSDGLPRCELAVSLAAGRHPHLVGVEGRVGDHPSGIPALVMALIDPDFINLAGPPSLDSCTRDIYQADARFTPAALLAMVQGVASAALHLHGRGILHGDLYAHNMLHSLQEEGRLLLGDFGAASCYERTDGELAGLLERLEVRAFGCLLEELLARCAPCDDRLDALHALVDDCLAEVVAARPDFAEIAARLAAVAPVICAEPVLL
- protein production: failed

Sequence: MSQAHAAQRPNGAKEPANPTQGGRKAIIAAASANLAIAVTKAIAWALTGASSMLAEAIHSVADTANQVVLMMGGKESHKEADEDHPFGYETARYLSGFIVAIVIFTLGGLFALYEAYHKIGATLGGHPDELLDSQWWWVPLAVVMISLCAEGASLRTALKESSQDREGMTILQYIRKAKAPELPVVMLEDSAAVLGLIFAFLGVGLTLLTHNPIFDGIGSACIGILLVVVAGVLSREMKSLLEGESAAPESRKAVYDALIHSDGVDSVIYMKTVHLGPETILLAAKIAVDPTDSAFEVARIIDNAEASVRAAEPLVGPLFLEPDIRYGDKRIKDGEERPEDQS
- protein production: failed

Sequence: AAVLTQDKNTPTYGPANGKVTVIEFFDYQCVYCSRLAPVMEQVIKAHPQTRFAFKEWPIFGGRWESSLEAAKTGLQIYQQKGADAYLAYHNGIYATGHNEGKLTTADIQQQAKKAGFDAKKAADVEPVLQSINDLAQEIGLSGTPGVIVMPTTGATEASITVFPGLADKASLEAAIKKAGG
- protein production: failed

Sequence: MQILEDFDGKALPKLETDRLILRQRTVGDVPAMFDYVCLEEVAYPAGLSPIASLEDEYDYFENRYYQNLEKAKLPSGYGITVKGSDRIIGSCAFNHRHEDDVFEICYLLHPDYWGHGYMTEAVAALIEVGFTLLNLHKIEIRCYDYNKQSRRVAEKLGFTLEATIRDRKDNQDNRCVNLIYGLLRSEWE
- protein production: failed

Sequence: SAPPKQSWEQAVDTLRDIGALNAAGQITELGRTLATLPTDPRLGASLLHCGGGAAPTIAALSLDARGDIPRAIAAMSHQQRFTREVARLAGFVP
- protein production: failed

Sequence: VRVLSYDKEKLNWLYKDPQGLVQGPFSLTQLKAWSDAEYFTKQFRVWMTGESMESAVLLTDVLRL
- protein production: not failed

Sequence: MRTAVAVPYHSGIRLPLLFEKNARMTETIDTNVFNLAPVAMWIEDFSEVKSQFDIWRAEGIEDIRAFLLEDLSRVAACSQKIRVIEVNAKTLELFEARDQAHLVDNLHRIFRDDMLESHVNELSELWAGRTEFTSNAVNYSIGGRRLDIQLRGTVIPGHEDTLGRLLLTTEDVTEREEARRKELLNRRYAEGMFKHSPVSLWVEDFSRVRRLIEEVRERGIVDFRVFMDVHPEFVRQCMSEIRVIDVNQATLDLFCAADRQVLLQRLGDIFRGEMEKPFREQLIELWNGNLTHHREVVNYALDGSERHVLLHFSVFPGHERDWSLVQVALTDITARKKAEAYLEYLGKHDVLTKLHNRAFYSDELNRLERSALRPVSAIVIDLNGLKEANDKLGHDAGDALLRRVGEVLNGVVTAPNHAARIGGDEFAILLPGADKQVAAAMVDTVYELLKINNQFYSSAPLSLSLGVATTEAGETMESLVRRADMNMYEQKNAYYAALRNRSADNNDTTKGGSQSETTSLKRLF
- protein production: failed

Sequence: MALIVQKFGGTSVGTVERIEQVAEKVKKFREAGDDVVVVVSAMSGETNRLIGLANQIMEQPVPRELDVMVSTGEQVTIALLSMALIKRGVPAVSYTGNQVRILTDSAHTKARILHIDDTHIRADLKAGRVVVVAGFQGVDGNGNITTLGRGGSDTTGVALAAALKADECQIYTDVDGVYTTDPRVVPQARRLDKITFEEMLEMASLGSKVLQIRAVEFAGKYNVPLRVLHSFQEGPGTLITIDDEEESMEQPIISGIAFNRDEAKLTIRGVPDTPGVAFKILGPISAANVEVDMIVQNVAHDNTTDFTFTVHRNDYLNALEILKQTAANIGAREAIGDTNIAKVSIVGVGMRSHAGVASRMFEALAKESINIQMISTSEIKVSVVIEEKYLELAVRALHTAFELDAPARQG
- protein production: failed

Sequence: MKHYTVAINGLPQEFEGFTILHLTDLHAKKYGDQQDKLIRLINRQNFDMVAMTGDFIDKDNPDLEPTLELIQGLAAKPIFFVPGNHEWRYDFSIKSSLEEHGVKILDNKNAELARGDARLWIAGVDDPYLHRDKLEEALHGIADAQPKLLLAHAPNIFKPAAESGVELVLVGHTHGGQVRLPLIGAIVAPGQGLFPQYDYGHFTAGSTNMIVNGGLGESTLPLRFCSRPEIVLVKLVSAPLEHHHHHH
- protein production: failed

Sequence: MTKKQKEILFCDYFEEWVEVYKVGAIAKITLAKYYNAAKQLRDLCPKLFISDFDRREYQRIINVYAETHEKQTVKDFHHHVKACIKDLFHDGLIDKDPTYRVVIKGAEPTRAKKRKFLQKEELSKLLQSLDMSQIGFGWFVMLVAKTGMRYAEALAITPADFDWTAQTISINKTWDYKYNKGFAKTKTLSSVRTIKIDWQIVGQFKPLIKDFPEDEPIFVEKFGDGTYKRQFNSTINNFLAVKCNETGITQISFHALRHTHASVLLAEGVSIHTISARLGHADVGVTQETYAHVLDELQKKDDQKMLSVLMQIA
- protein production: failed

Sequence: SESKIACHHTVHGFEQRRGLHSRNEKAMEYVAKGWSAIKEVERVIDYCELNDRRLIPLLRGAKENFELALEADNLNTHARYWLSKLHLKYHVPGACKAVGAALLVEAADMGNADAQYELGCRLRVENDHVQSDQQAFHYIENAVDQLHPGALYLLGIVYLTGDCVKQDVDSAIWCFHRASEKGHAGAAIAYGSLLLRGVQVPESLTKLNVVGVSPPKRARKNLENPEMNPLEMAKEQFQIAARAGCDLGLKWLQRVEQEEKLLMREQDNECAYV
- protein production: failed

Sequence: MRRTRRPRFVLMNKMDDLNLHYRFLNWRRRIREIREVRAFRYQERFKHILVDGDTLSYHGNSGEVGCYVASRPLTKDSNYFEVSIVDSGVRGTIAVGLVPQYYSLDHQPGWLPDSVAYHADDGKLYNGRAKGRQFGSKCNSGDRIGCGIEPVSFDVQTAQIFFTKNGKRVGSTIMPMSPDGLFPAVGMHSLGEEVRLHLNAELGREDDSVMMVDSYEDEWGRLHDVRVCGTLLEYLGKGKSIVDVGLAQARHPLSTRSHYFEVEIVDPGEKCYIALGLARKDYPKNRHPGWSRGSVAYHADDGKIFHGSGVGDPFGPRCYKGDIMGCGIMFPRDYILDSEGDSDDSCDTVILSPTARAVRNVRNVMYLHQEGEEEEEEEEEEEDGEEIEPEHEGRKVVVFFTRNGKIIGKKDAVVPSGGFFPTIGMLSCGEKVKVDLHPLSG
- protein production: not failed

Sequence: MEQQEEKRKIKAYQRKSKRSKSGSSSIPLDLVSEILLRLPEKSVARFRCVSKPWSSITTEPYFINLLTTRSPRLLLCFKANEKFFVSSIPQHRQTFETWNKSHSYSQLIDRYHMEFSEEMNYFPPTESVNGLICFQESARLIVWNPSTRQLLILPKPNGNSNDLTIFLGYDPVEGKHKVMCMEFSATYDTCRVLTLGSAQKLWRTVKTHNKHRSDYYDSGRCINGVVYHIAYVKDMCVWVLMSFDVRSEIFDMIELPSSDVHKDVLIDYNGRLACVGREIIEKNGIRLWILEKHNKWSSKDFLAPLVHIDKSLSTNKFLLKGFTHAGEIIYVESMFHKSAKIFFYDPVRNTSRRFELKGFTDDEFVLSNEHGYTLHVFPNHVESQISFT
- protein production: failed

Sequence: MSSFKGIFGFNRVELKDLLISSIAIAIVVVWPRGFPTFNIGFFLHFIAALLTVGIAFIFHELAHRTVARHFGAWSEFRAWYEGLALAIFLKIILGFTFIAPGAVYIHKDYLKTKENGLISVAGPLTNIVLAVLFMILPIPAIYYSGYYVDISSYGYFVNIFLAMFNLLPIYPFDGSKVMRWNFLVWAVLFIPLIVLYFFV
- protein production: failed

Sequence: MSSDCLNVSYPATGCQKLFEVVDEHKLRVFYEKRMGQVVEADILGDEWKGYQLRIAGGNDKQGFPMKQGVLTHGRVRLLLKKGHSCYRPRRTGERKRKSVRGCIVDANMSVLALVVLKKGEKDIPGLTDTTIPRRLGPKRASKIRKLYNLSKEDDVRRFVVRRPLPAKDNKKATSKAPKIQRLITPVVLQRKHRRIALKKKRQIASKEASADYAKLLVQRKKESKAKREEAKRRRSASIRESKSSVSSDKK
- protein production: failed

Sequence: MYLTLTIAAMPAYNEAHVIAEVILGCKKYVDNVIVVDDGSSDNTAEVARSAGGYVVKHEVNKGYGAALKSCFKLAREFNADVMIIMDSDGQHNPDEIPRLLEPLKHGADLVIGSRFINGNGKNVPAYRKVGMKILDIATYLAGGILVTDSQSGFRAYGKKAIENVRFDGNNMSAGSEILLYIKDHNLKFTEVEIHCRYDLDQCSSQNPFLHGMEVAFQILKNMGFRRPLYYFTVPGILLIAAGLLIEIAFLHLVGSFGFGVISLIFLMILTGIFMVFTGVILHLVSKMISQIVPGQKGTESLNDGF
- protein production: failed

Sequence: MRGLSSLLLMIVLALLLYPLPHGVILIGIMTLSLLSHTLGIISLGILALYLIVFRITNIVGVAIMALGLLVVEIREMEKIRAPMEHFLYLIVAVGLSLLTYFGVYAISLAGVSLDVTLLAVLFLLLLYAFIRISVLSP
- protein production: failed

Sequence: VNFEVKDQTLMMELVPERLRGETATFDIEADGKVYVEKGRRVTARHIRQLEKDGVNFIEVPVEYIVGKVSAKDYVNEATGELIITANQEISLEALANLSQAG
- protein production: not failed

Sequence: MAATTGLETLVDQIISVITNDGRNIVGVLKGFDQATNIILDESHERVFSTKEGVQQHVLGLYIIRGDNIGVIGELDEELDASLDFSKLRAHPLKPVVH
- protein production: failed

Sequence: MFSQTIFFGMKQSARGVSVAFSTLQEASMHKRVLIQAASALLALQFMAVPVFAAGSSGGGSDQTVTQCKKGEVWDKKKKKCVAPQEGMLDDDSIYDAGHALAMAGRYDEAISVLTLAANKQDPRILNYLGYSHRHSGRVTVGLGYYEEALRIDPNYTLVREYLGEAHLQIGDLAGAQQQLMEIEKRTGKGSREYGMLSEQIDHFMRS
- protein production: failed

Sequence: MDRLAHMQMFVAVVEAGSITAAAERMNLAKSAVSRRLAELEAGLGVSLIQRTTRRLNLTESGRTYYARCVAILADVEDAEAEVSQGHGALRGRLKVALPQAFGLLHLAPLIQTFMKRHPDVRLELDFNDRQVDLMQEGFDLAIRIATLADSTLIARRLAAIPHRVVASPGYLARRGTPRAAADLTQHDCLAYSNVRDPGLWSYRDPGGEPGQVRVVVRLAASSGEFLLQAAIADEGLVLLPAFYLHAALRSGQLSEVLADHRWPEPAAYAVYPPTRHLSARAHAFIDFLAGHLGGAGEPPAGDEVAPTLAPNTSAG
- protein production: failed

Sequence: MAGAITHDHAAAAQGRQGGPLIVTEDVELLDDLLRLCAAAGARPEVHHTVPDGRGTWEAAPLVLVGDDAARRVRGAARRRGVVLVGRDQDDSGVWRRAVEIGADHVLLLPDGEQWLVDRIADVAEGVGRPALTVGVIGGRGGAGASTLACALAVTSARQGRRTLLVDADPLGGGLDVLLGGETAEGLRWPAFAASRGRVGGGALEESLPELHALRVLSWDRGDAVAVPPQAVRAVLAAARRRGGAVVVDLPRRVDEGAAEALAQVDLGVLVVPAELRAIAAAARVASAAGMVLGDLRVAVRGPYAPGLDDREVARLLGLPLLGEVPAEPPVPDGGVPPGGAARGPLARFCAVFWDRALVEAGGVLEHHHHHH
- protein production: failed

Sequence: MLKKGNEMKAVIVYASVHHGNTKKIEEAMASVISADVIDVTRKIKPDLSGYDVIGFVSGVYFHTFHEGIKKCIEENMSSKGQKVFLVATCGLGYRDYTKGMKDTLAKKDVLCMGSFQCRGWDTYGIFGKIGGIAKKHPNDRDLKEAQEFVLKTVCKTNLEHHHHHH
- protein production: not failed

From a protein production outcome set (Wang et al. 2014)
